Data from the nanobody polyreactivity screen of Harvey et al. (2022).

Experiment: yeast display, Sf9 membrane polyspecificity reagent, FACS + sequencing; frameworks hold sequencing errors
Procedure, shortened: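 A synthetic nanobody library was expressed on Saccharomyces cerevisiae BJ5465 by galactose induction for 36–48 hours. The library was stained for 1 hour at 4 °C with 10% biotinylated, detergent-solubilized Sf9 membrane reagent and enriched with streptavidin microbeads before FACS. Low and high (top ~1%) gates were set on anti-HA fluorescence for expression and streptavidin fluorescence for reagent binding, and each polyreactivity label reflects the gate of origin.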

Q: For “QVQLQESVGGLVQAGGSLRLSCAASGNIFPTHRMGWYRQAPGKELEFVATISDGGSTNYADSVKGRFTISRDHAKNTVYLQMNSLKPEDTAVYYCAVLSLGRLRHYYWGQGTQVTVSS”, which “polyreactivity (PSR sort gate)” value is on record?
A: low polyreactivity

Q: For “QVQLVESGGGLVQAGGSLRLSCAASGYAMGWYRQAPGKERELVAAITRRGGSTYYADSVKGRFTISRDNAKNTVYLQMNSLKPEDTAVYYCAADNPSYNLWYGYWGQGTQVTVSS”, which “polyreactivity (PSR sort gate)” value is on record?
A: low polyreactivity

Q: For “QVQLVESGGGLVQAGGSLRVSWAACGSTFYGYGMGWYRQAPWKERELVAAITGSGDTTYYADSVKGRFTISRDNAKNTVYLQMNSLKPEDTAVYYCAADASSKLYEYWGQGTQVTVSS”, which “polyreactivity (PSR sort gate)” value is on record?
A: low polyreactivity

Q: With “QVQLVESGGGLVKAGGSLRLSCAASGSTFSRYAKGWYRQAPGKEREFVAAISKSGGGTYYADSVKGRFTISRDNAKNTVYLQMNSMKPEETAVYYCARRVRYKHYDYWGQGSQVTVSS” as the sequence, how does the “polyreactivity (PSR sort gate)” value read?
A: high polyreactivity

Q: With “QVQLVESGGGLVQAGGSLRISCDASGSTLRGYSIGWYRQAPGKERELVAAISRRGSGTYYADSVKGRFTISRDNAKNTVYLQMNSLKPEDTAVYYCNAVNGDYEFGYWGQGTQVTVSS” as the sequence, how does the “polyreactivity (PSR sort gate)” value read?
A: high polyreactivity

Q: With “QVQLVESGGGLVQAGGSLRLSCAASGRIFVRNAMGWYRQAPGKERELVAAITRTGASTYYADSVKGRFTISRDNAKNTVYLQMNSLKPEDTAVYYCNKEIVWHLWYESWGQGTQVTVSS” as the sequence, how does the “polyreactivity (PSR sort gate)” value read?
A: high polyreactivity

Q: For “QFQLVESGGGLVQAGGSLRLSCAASGRIFVGYAMGSYRQAPGKEMELVATISSRGGSTYYADSVKGRFTISRDNAKNTLYLQMNSLKPEDTAVYYCAAVARNNRNSRQRIPYDFWGQGTQVTVSS”, which “polyreactivity (PSR sort gate)” value is on record?
A: high polyreactivity

Q: Which “polyreactivity (PSR sort gate)” value does the source give for “QEQLEESGGGVVQAGGSLRLSCAAYGSIFYAYSMGWYRQAPGKEREFVAASSKRGGSTYYSDSVKGRFTISRDNEKNTVYLQMNSLKPEDTAVYYCYVGYGYWRGVKQSYDRFDYWGQGTQVTVSS” here?
A: high polyreactivity

Q: For “QVQLVESGGGLVQAGGSLRLSCAASGSTFRKYTMGWYRQAPGKERELVASISRRGGSTYYADSVKGRFTISRDNAKNTVYLQMNSLKPEDTAVYYCNVTYSQYGYDYWGQGTQVTVSS”, which “polyreactivity (PSR sort gate)” value is on record?
A: high polyreactivity

Q: With “QVQLVESGGGLVQAGGSLRLSCAASGLIFYKYAKGWYRQAPGKERELVAAISRGDNTYYADSVKGRFTISRDNAKNTVYLQMNSLKPEDTAVYYCAAYRWIYQSQYQGYWLDYWGQGTQVTVSS” as the sequence, how does the “polyreactivity (PSR sort gate)” value read?
A: high polyreactivity

Q: For “QVQLVESGGGLVQAGGSLRVSCAPSGRTFSWYAMGWYRQAPGKEREFVAAIRWSGSSTYYADSVKGRFTISRDNAKNTVYLHMNSLKPEDTAVYYCAVAAGIPQRRYYYWGHGTQVTVSS”, which “polyreactivity (PSR sort gate)” value is on record?
A: high polyreactivity

Q: With “QVQLVESGGGLVQAGGSLRLSCAASGSTFIANAMGWYRQAPGKEREFVATISRRGGSTYYADSVKGRFTISRDNAKNTVYLQMNSLKPEDTAVYYCAARPLTYIRFRYYYWGQGTQVSVSS” as the sequence, how does the “polyreactivity (PSR sort gate)” value read?
A: high polyreactivity

Q: For “QVQLVESGGGLVQAGGSLRLSCAASGSIFYINAMGWYRQAPGKERELVAAINRGGSTNYADSVKGRFTISRDNAKNTVYLQMNSLKPEDTAVYYCAAYIYKTYRYYYWGQGTQVTVSS”, which “polyreactivity (PSR sort gate)” value is on record?
A: high polyreactivity

Q: For “QVQLVESGGGLVQAGGSLRLSCAASGSTFVLYAMGWYRQAPGKERELVATISSGGSTYYADSVKGRFTISRDNAKNTVYLQMNRLKPEDTAVYYCAASYSRFVDWIGDPGYDYWGQGTQVTVSS”, which “polyreactivity (PSR sort gate)” value is on record?
A: low polyreactivity

Q: For “QVQHVESGGGLVQAGGSLRLSCAASGSIFRYNARGWYRQAPGKERELVAAISSSGGRTYYADSVKGRFTISRDNAKNTVYLQMNSLKPEDTAVYYCATADTRRFTYGYYYWGQGTQVTVSS”, which “polyreactivity (PSR sort gate)” value is on record?
A: high polyreactivity

Q: For “QVQLVESGGGLVQAGGSLRLRSAASGIILGKYAMGWYRQAPGKERELVAAISGRGGRTYYADSVKGRFTISRDNAKNTVYLQMNSLKQEDTAVYYWWGQGTQVTVSS”, which “polyreactivity (PSR sort gate)” value is on record?
A: low polyreactivity

Q: Which “polyreactivity (PSR sort gate)” value does the source give for “QVQLVESGGGLVQAGGSLRLSCAASGRIFDDNAMGWYRQAPGKERELVADINNATSTNYADSVKGRFTISRDNAKNTVYLQMNSLKPEDTAVYYCAADDYIYYRILGDSFVYKAYGYWGQGTQVTVSS” here?
A: low polyreactivity

Q: Which “polyreactivity (PSR sort gate)” value does the source give for “KVQLVESGVGLVQAGGSLRLSCAPSGSIFKYYAMGWYRQAPGKERELVAAITDRGSSTYYADSVKGRFTISRDNAKTTVYLQMNSLKPEDTAVYYCAAETYVCIYWPYVKYYYWGQGTQVNVSS” here?
A: high polyreactivity

Q: For “QVQLVESGGGLVHAGGSLRLSCAASGSTFNRYAMGWYRQAHGKERELVASISWGGGRTYYADSVKGRFTISRDNEKNTVYLLMNSLKPEDTAVYYCATDRYYRHYEVDYWGQGTQVTVSS”, which “polyreactivity (PSR sort gate)” value is on record?
A: low polyreactivity

Q: For “QVQLVESGGGLVQAGGSLRLSCAPSGSIFWYYCKGWYRQAPGKERELVAAISSGGSTNYADSVKGRFAISRDNAKNTVYLQMNSLKAEDTAVYYCAVRFTFPRYDYWGQGTQVTVSS”, which “polyreactivity (PSR sort gate)” value is on record?
A: high polyreactivity

Q: With “QVQLVESGGGVVQAGGSLRLSCAASGSIFPYNAMGWYRPAPGKERELVAVITSSGGSTYYADSVKGRFTISRDNAKNTVYLQMNSLKPEDTAVYYVAARGYNYYFGGYDYWGQGTQVTVSS” as the sequence, how does the “polyreactivity (PSR sort gate)” value read?
A: low polyreactivity

Q: For “QVQLVESGGGLVQAGGSLRLSSAASGITFGAYAMGWYRPAPGKERELVAAIRRSDGSTYYADSVKGRFTISRDNAKNTVDLQINSLKPEETAVYYCAADEGLYQGYEYDYWGHGTQVTVSS”, which “polyreactivity (PSR sort gate)” value is on record?
A: high polyreactivity

Q: Which “polyreactivity (PSR sort gate)” value does the source give for “QVQLVESGGGLVQAGGSLRLSCAASGFTFDGNAMGWYRQAPGKERELVATITSGGNTKYADSVKGRFTISRDNAKNTVYFQMNSLKPEDTAVYYCAAAQYNYRRFNYWGQGTQVTVSS” here?
A: low polyreactivity

Q: With “QVQHVESGGGLVQAGGSLRLSCAASGRIFVRNAMGWYRQARGKERELVADITNGGSTNYADSVKGRFTISRDNAKNTVYLQMNSLKPEDTAVYYCAVERYRYPFDYWGQGTQVTVSS” as the sequence, how does the “polyreactivity (PSR sort gate)” value read?
A: low polyreactivity

Q: For “QVQLVESGGGLVQAGGSLRLSCAASGRTFVPYAMGWYRQAPGKEREFVAAISSRVASTYYADSVKGRFTISRDNAKNTVYLQMNSLKPEDTAVYYCARTNPAYSIYDYWGQGTQVTVSS”, which “polyreactivity (PSR sort gate)” value is on record?
A: low polyreactivity

Q: With “QVQLVESGGGLVQAGGSLRLSCAASGSNFVRNVMGWYRQAPGKERELVAGISWNGGSTFYADSVKGRFTISRDNAKNTVYLQMNCLKPEDTAVYYCATPYGRHGWFYLYDYWGQGTLVTVSS” as the sequence, how does the “polyreactivity (PSR sort gate)” value read?
A: low polyreactivity

Q: Which “polyreactivity (PSR sort gate)” value does the source give for “QVQLVDSGGGLVQAGGSLRLSCAASGFIDALDAMGWYRQAPGKERELVAAISYSGGSTYYADSVKGRFTISRDNAKNTVYLQMNSLKPEDTAVYYCAVYYRSAFYYWGQGTQVTVSS” here?
A: high polyreactivity

Q: With “QVQLVESGGGLVQAGGSLRLSCAASGFTFQYYTMGWYRQAPGKERELVAAISGSGGRTYYADSVKGRFTISRDNAKNTVYLQMNSLKPEDTAVYYCAKVYNRVYYGKGDYWGQGTQVTVSS” as the sequence, how does the “polyreactivity (PSR sort gate)” value read?
A: high polyreactivity

Q: For “QVQLVESGGGLVQAGGSLRLSCAASGSIFVQNRMGWYRQAPGKERELVAAITFSGVDTYYADSVKGRFTISRDNAKNTVYLQMNSLKPEDTAVYYCAARVQHYLSTDDYWGQGTQVTVSS”, which “polyreactivity (PSR sort gate)” value is on record?
A: low polyreactivity

Q: For “QVQLVESGGGLVQAGGRLRLSCAASGSIFTYNAMGWYIQAPGKERELVAAISASGGRTYYADSVKGRFTISRDNAKNTVYLQMNILKPEDTAVYYCAARIRVSGLRRFDYWGQGTQVTVSS”, which “polyreactivity (PSR sort gate)” value is on record?
A: high polyreactivity

Q: For “QVQLVESGGGLVQAGGSLRLSCAASGSIFIQYAMGWYSQAPGKERELVAAINSSGGRTYYADSVKGRFTISRDNAKNTVYLQMNSLKPEDTAVYYCAADPGSSFDWGQGTQVTVSS”, which “polyreactivity (PSR sort gate)” value is on record?
A: low polyreactivity

Q: With “QVQLVESGGGLVKAGGSLRLSCAASGSTLDPNVMGWYRQAPGKERELVAAITSGGSTYYADSVKGRFTISRDNAKNTVYLQMNSLKPEDTAVYYCAADSHGHVFYSWYDYWGQGTQVTVSS” as the sequence, how does the “polyreactivity (PSR sort gate)” value read?
A: low polyreactivity

Q: For “QDQLVESGGGLVQAGGSLRLSCAASGFTFAANAMGWSRQAPGKERELVAAISSDSTYADSVKGRFTISRDNAKNTVYLQLNSLKPEDTAVYYCAKDRYIVNSPGLDYWGQGTQVTVSS”, which “polyreactivity (PSR sort gate)” value is on record?
A: low polyreactivity

Q: For “QVQLVESGGGLVHAGGSLRLSCAASGSIFNVYAMGWYRQAPGKERELVAAITQSGGSTYYADSVKGRFTISRDNAKNTVYLQMNSLKPEDTAVSYCAADNRYTYYYWGQCTQVTVSS”, which “polyreactivity (PSR sort gate)” value is on record?
A: low polyreactivity

Q: For “QVQLVESGGGLVQAGGSLRLSCAASGITFAIYDMGWYRQAPGKERELVAVISGRGGSTYYADSVKGRFTISRDNAKNTVYLQMNSLKPEDTAVYYCAARGEASIFAGYDYWGQGTQVTVSS”, which “polyreactivity (PSR sort gate)” value is on record?
A: low polyreactivity

Q: For “QVQLVESGGGLVQAGGSLRLSCAASGRTFWFNDMGWYRQAPGKERELVAAISDTDGSTYYADSVKGLFTISRDNAKNTVYLQMNSLKPEDTAVYYCAAEAYYGYLYAYDYWGQGTQVTVSS”, which “polyreactivity (PSR sort gate)” value is on record?
A: low polyreactivity

Q: For “QDQLVESVGGLVQAGVSLPLSCAASGIIFLYNDMGWFRQARGKAREFVATLSRSGGSTYYADSVKGRVTISRDNAKNTVYLQMNRLKPEETAVYYCAADEDSGYGYWGQGTQVTVTS”, which “polyreactivity (PSR sort gate)” value is on record?
A: low polyreactivity

Q: For “QVQLVESGGGLVQAGGSLRLSCAASGFNIVRYAMGWYRHAPRKERELVATITSGTSTNYADSVKGRITISRDNAKNTVYFQMNSLKPDDTAVYYCAADHYYTGTTYNFWGQGTQVNVSS”, which “polyreactivity (PSR sort gate)” value is on record?
A: low polyreactivity

Q: Which “polyreactivity (PSR sort gate)” value does the source give for “QVQLVESGGGLVQAGGSLRLTCAASGRIIKLYAMGWYRQAPGKETEFVAAITWSGGRTYYADSVKGRFTISRDNAKNTVYLQMNSLTPEDTAVYSCAAYDTYDWYDYWGQGTQVTVSS” here?
A: high polyreactivity

Q: For “QVQLVESGGGLVQAGGSLRLSCAASGSTFAYYTMGWYRQAPGKERELVAAISKSGGSTTYADSVKGRFTISRDNAKNTVYLQMNSLKPEDTAVYYCAAYDRVENYNYWGQGTQVTVSS”, which “polyreactivity (PSR sort gate)” value is on record?
A: high polyreactivity

Q: With “QVQLVESGGGLVQAGGSLRLSCAASGRIFAFYTMGWYIQAPGKERELVAAITRRSGSTYYADSVKGRFTISRDNAKNTVYLQMNSLKPEDTAVYYCAVDTYIYTNRRYTKFDYWGQGTQVTVSS” as the sequence, how does the “polyreactivity (PSR sort gate)” value read?
A: low polyreactivity
